# Source: patent US20040248178A1 (GENERAL HOSPITAL, published 2004)
# B1: Recombinant mouse β-netrin lacking the C domain, with His tag (rβ-NΔC+His) (ligand)
# chain: GLNGVAGANSRCEKACNPRMGNLALGRKLRADTMCGQNATELFCFYSENADLTCRQPKCDKCNAAHSHLAHPPSAMADSSFRFPRTWWQSAEDVHREKIQLDLEAEFYFTHLIMVFKSPRPAAMVLDRSQDFGKTWKPYKYFATNCSATFGLEDDVVKKGAICTSRYSNPFPCTGGEVIFRALSPPYDIENPYSAKVQEQLKITNLRVRLLKRQSCPCQINDLNAKPHHFMHYAVYDFIVKGSCFCNGHADQCLPVEGFRPIKAPGAFHVVHGRCMCKHNTAGSHCQHCAPLYNDRPWEAADGRTGAPNECRTCKCNGHADTCHFDVNVWEASGNRSGGVCNNCQHNTEGQHCQRCKPGFYRDLRRPFSAPDACKACSCHPVGSAILPFSSVTFCDPSNGDCPCKPGVAGPHCDRCMVGYWGFGDYGCRPCDCAGSCDPLTGDCISSNADVDWY
# notes: also called rβ-NAC+His; rβ-netrin ΔC; not shown: six histidine tag followed by a thrombin cleavage site
# Target: the molecule itself
# Assay: transmission electron microscopy after rotary shadowing (self-association)
protein,measurement,value
B1,binding result,no binding
